Measurements as given in patent US20250011423A1 (ASCENDO BIOTECHNOLOGY, published 2025).
Positions count from the first letter of the chain named.

T1: human TREML1 ECD (human, UniProt Q86YW5 16-162)
T1 construct: Any tags are not described; also called soluble TREML1; soluble TLT1
T1 sequence: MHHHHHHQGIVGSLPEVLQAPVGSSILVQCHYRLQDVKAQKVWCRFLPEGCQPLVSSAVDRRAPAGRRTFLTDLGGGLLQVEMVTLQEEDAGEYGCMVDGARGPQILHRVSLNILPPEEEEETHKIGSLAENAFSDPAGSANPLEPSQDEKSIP

T2: mouse TREML1 ECD (mouse, UniProt Q8K558 21-175)
T2 construct: also called murine TREML1 ECD
T2 sequence: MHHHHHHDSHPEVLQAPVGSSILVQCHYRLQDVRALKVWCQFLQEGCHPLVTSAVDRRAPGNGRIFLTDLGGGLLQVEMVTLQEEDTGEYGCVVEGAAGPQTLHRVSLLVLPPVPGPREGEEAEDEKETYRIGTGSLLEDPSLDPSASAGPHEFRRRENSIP

B1: Anti-TREML1 Antibody Clone 18D8 (antibody, V domains shown)
VH: EVQVQQSGPELVNPGASVRLSCKASGYIFTDYVIHWVRQKPGQGLEWIGYMNPYTDGPKYSDKIKDKAILTSDRSSNTVYMELRSLTSEDSAVYFCARDFNYYVGAMDFWGQGTSVTVSS
VL: DVVLTQTPLSLPVSLGDQASVSCRSSQSLLHSNGNTYLHWYLQKPGQSPKLLIYKVSNRFSGVPDRFTGSGSGTDFTLKISRVEAEDLGVYFCSQSTHIWTFGGGTKLEIK
notes: It was detected with anti-mouse IgG
B2: Anti-TREML1 Antibody Clone 27D3 (antibody, V domains shown)
VH: DVQLQQSGPELVKPGASVKMSCKASGYTFTEYVIHWVKQRPGQGLEWFGYFNPYTGGSKFNEKFKDKATLTSDRSSNTVYMELYSLTSEDSAVYYCARDFNYYVGAMDYWGQGTSVTVSS
VL: B1 VL with V3A, V21I, L30V, P45S, T68S, G73V, D75E, T97S, K107R
notes: as for B1
B3: Anti-TREML1 Antibody Clone 28A9 (antibody, V domains shown)
VH: EVQLQQSGPELVKPGASVKMSCKASGYTFTNYVMHWVKQKPGQGLEWIGYFNPYNGHAKYSEKFTGKATLTSDRSSSTAYMELNSLTSEDSAVYYCTRDFNYYVGAMDYWGQGTSVTVSS
VL: DVVMTQSPLSLPVNLGDHASISCRSSQSLIHSNGNTYLHWYLQKPGQSPKLLVYQVSKRFSGVPDRFSGSGSGTDFTLKISRVEAEDLGVYFCSQSTHIWTFGGGTTLEIK
notes: as for B1
B4: Anti-TREML1 Antibody Clone 26A6 (antibody, V domains shown)
VH: EVKLVESGGGLVQPGGSRKLSCAASGFTFSDYGMAWVRQAPGKGPEWIAFISNLAYRIYYADTVTGRFTISRENAKNTLYLEMSSLRSEDSAIYYCVREDYGNNGAMDYWGQGTSVTVSS
VL: DVLMTQTPLSLPVSLGDQASISCRSSQSIVHSNGNTYLEWYLQKPGQSPKLLIYKVSNRFSGVPDRFSGSGSGTDFTLKISRVEAEDLGVYYCFQGSHVPPTFGGGTKLEIK
notes: It was detected with anti-mouse IgG, so it is a mouse antibody
B5: Anti-TREML1 Antibody Clone 23F10 (antibody, V domains shown)
VH: EVQLQQSGPELVRPGASVKVSCKASGYIFTDYVIHWVKQKPGQGLEWFGYINPYTGGPKYSETARGKATLTSDSSSNTAYMVLTSLTSDDSAVYYCTRDFNYYVGAMDFWGQGTSVTVSS
VL: AAVLTQTPLSLPVSLGDQASISCRSTQSLVHSNGNTYVHWYLQKAGQSPKLLIYKVSNRFSGVPDRFSGSGSGTDFTLKISRVEAEDLGVYFCSQSTYVWTFGGGTKLEIE
notes: as for B1
B6: Anti-TREML1 Antibody Clone 29F4 (antibody, V domains shown)
VH: B5 VH with R65K, D89E
VL: B5 VL with A1G, R24K, S68I
notes: as for B1

Molecular target: T1, human TREML1 ECD
Assay: solid phase binding assay (ELISA), antigen coated
Experimental: (§1) To investigate the TREML1/I-domain of CD11 b interaction, 5 μg/ml of recombinant I-domain of CD11 b (SEQ ID: 1) and BSA (negative control) proteins were coated separately on 96 well plates and incubated overnight at 4° C. Plates were added the blocking buffer (2% BSA in PBS) to avoid the nonspecific binding for 2 hours (hrs) at room temperature. A serial diluted TREML1 ECD was added and allowed to incubate at room temperature for 2 hrs. 1ug/ml of anti-TREML1 antibody (MAB2394, R&D systems) was added for 1 hr. Next, the secondary antibody with HRP labeling, anti-Rat IgG-HRP, was added to the plate and incubated for 30 minutes at room temperature. Plates were washed thrice with 0.05% tween 20 PBS buffer (PBST) between each step. Finally, TMB substrate was added and incubated for 10-15 min to detect HRP labeling antibody. After that, a stop solution of 1N HCL was added to stop the reaction. Absorbance at OD450/540 nm was measured by a microplate reader. To measure the half-maximal saturation binding of anti-TREML1 antibodies to TREML1, 5 μg/ml of human TREML1 ECD (SEQ ID: 2) or mouse TREML1 ECD (SEQ ID: 3) were coated on 96 well plates and incubated overnight at 4° C. Plates were added the blocking buffer (2% BSA in PBS) to avoid the nonspecific binding for 2 hr at room temperature. A serial diluted anti-TREML1 antibody was added and allowed to incubate at room temperature for 2 hr. Next, the secondary antibody with HRP labeling, anti-mouse IgG-HRP, was added to the plate and incubated for 30 minutes at room temperature. Plates were washed three times with 0.05% tween20 PBS buffer (PBST) between each step. Finally, TMB substrate was added and incubated for 10-15 min to detect HRP labeling antibody. After that, a stop solution of 1N HCL was added to stop the reaction. Absorbance at OD450/540 nm was measured by a microplate reader.

| EC50 | Binder |
| --- | --- |
| 250 pM | B1 |
| 310 pM | B2 |
| 300 pM | B3 |
| 320 pM | B4 |
| 270 pM | B5 |
| 180 pM | B6 |

Molecular target: T2, mouse TREML1 ECD
Assay: solid phase binding assay (ELISA), antigen coated
Experimental: as §1

| EC50 | Binder |
| --- | --- |
| 33400 pM | B1 |
| 25000 pM | B2 |
| 2480 pM | B3 |
| 400 pM | B4 |
| 820 pM | B5 |
| 940 pM | B6 |
